The text below walks through data of IntAct's records for PubMed 29039417.

First the molecules themselves.
B1: BBSome complex member BBS5 (Homo sapiens), Q8N3I7 (parent)
chain: MSVLDALWEDRDVRFDLSAQQMKTRPGEVLIDCLDSIEDTKGNNGDRGRLLVTNLRILWHSLALSRVNVSVGYNCILNITTRTANSKLRGQTEALYILTKCNSTRFEFIFTNLVPGSPRLFTSVMAVHRAYETSKMYRDFKLRSALIQNKQLRLLPQEHVYDKINGVWNLSSDQGNLGTFFITNVRIVWHANMNDSFNVSIPYLQIRSIKIRDSKFGLALVIESSQQSGGYVLGFKIDPVEKLQESVKEINSLHKVYSASPIFGVDYEMEEKPQPLEALTVEQIQDDVEIDSDGHTDAFVAYFADGNKQQDREPVFSEELGLAIEKLKDGFTLQGLWEVMS
partner: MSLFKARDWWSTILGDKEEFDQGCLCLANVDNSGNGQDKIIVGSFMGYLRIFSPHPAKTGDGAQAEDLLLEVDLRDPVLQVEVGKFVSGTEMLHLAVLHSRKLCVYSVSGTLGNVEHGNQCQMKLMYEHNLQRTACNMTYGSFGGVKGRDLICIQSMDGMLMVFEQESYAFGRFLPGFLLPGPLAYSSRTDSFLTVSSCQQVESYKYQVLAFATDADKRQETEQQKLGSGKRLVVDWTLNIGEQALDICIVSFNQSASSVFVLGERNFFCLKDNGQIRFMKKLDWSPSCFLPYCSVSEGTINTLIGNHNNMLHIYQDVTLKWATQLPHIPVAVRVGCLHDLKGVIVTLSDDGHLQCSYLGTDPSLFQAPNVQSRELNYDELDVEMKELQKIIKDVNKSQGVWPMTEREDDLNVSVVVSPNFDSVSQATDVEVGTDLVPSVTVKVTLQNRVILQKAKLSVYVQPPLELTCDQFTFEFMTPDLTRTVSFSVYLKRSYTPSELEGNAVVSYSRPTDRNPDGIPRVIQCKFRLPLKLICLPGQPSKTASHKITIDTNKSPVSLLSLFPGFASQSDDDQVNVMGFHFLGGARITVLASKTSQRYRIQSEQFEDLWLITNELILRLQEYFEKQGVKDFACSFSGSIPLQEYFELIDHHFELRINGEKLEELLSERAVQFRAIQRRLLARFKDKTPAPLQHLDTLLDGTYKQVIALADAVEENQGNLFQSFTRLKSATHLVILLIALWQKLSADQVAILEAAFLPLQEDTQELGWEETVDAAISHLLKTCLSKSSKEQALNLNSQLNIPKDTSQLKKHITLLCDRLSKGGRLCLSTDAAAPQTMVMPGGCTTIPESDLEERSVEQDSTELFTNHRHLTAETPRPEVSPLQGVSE

Variants of B1 are the subject of this assay. As to conditions: with pthb1_human BBS9, Q3SYG4.
Consider MSVLDALWEDRDVRFDLSAQQMKTRPGEVLIDCLDSIEDTKGNNGDRGRLLVTNLRILWHSLALSRVNVSVGYNCILNITTRTANSKLRGQTEALYILTKCNSTRFKFIFTNLVPGSPRLFTSVMAVHRAYETSKMYRDFKLRSALIQNKQLRLLPQEHVYDKINGVWNLSSDQGNLGTFFITNVRIVWHANMNDSFNVSIPYLQIRSIKIRDSKFGLALVIESSQQSGGYVLGFKIDPVEKLQESVKEINSLHKVYSASPIFGVDYEMEEKPQPLEALTVEQIQDDVEIDSDGHTDAFVAYFADGNKQQDREPVFSEELGLAIEKLKDGFTLQGLWEVMS [E107K], for which the “effect of a mutation on the interaction” value was “with no effect”.
Next, MSVLDALWEDRDVRFDLSAQQMKTRPGEVLIDCLDSIEDTKGNNGDRGRLLVTNLRILWHSLALSRVNVSVGYNCILNITTRTANSKLRGQTEALYILTKCNSTRFEKIFTNLVPGSPRLFTSVMAVHRAYETSKMYRDFKLRSALIQNKQLRLLPQEHVYDKINGVWNLSSDQGNLGTFFITNVRIVWHANMNDSFNVSIPYLQIRSIKIRDSKFGLALVIESSQQSGGYVLGFKIDPVEKLQESVKEINSLHKVYSASPIFGVDYEMEEKPQPLEALTVEQIQDDVEIDSDGHTDAFVAYFADGNKQQDREPVFSEELGLAIEKLKDGFTLQGLWEVMS [F108K]: “with no effect”; MSVLDALWEDRDVRFDLSAQQMKTRPGEVLIDCLDSIEDTKGNNGDRGRLLVTNLRILWHSLALSRVNVSVGYNCILNITTRTANSKLRGQTEALYILTKCNSTRFEAIFTNLVPGSPRLFTSVMAVHRAYETSKMYRDFKLRSALIQNKQLRLLPQEHVYDKINGVWNLSSDQGNLGTFFITNVRIVWHANMNDSFNVSIPYLQIRSIKIRDSKFGLALVIESSQQSGGYVLGFKIDPVEKLQESVKEINSLHKVYSASPIFGVDYEMEEKPQPLEALTVEQIQDDVEIDSDGHTDAFVAYFADGNKQQDREPVFSEELGLAIEKLKDGFTLQGLWEVMS [F108A]: “with no effect”.
Next, MSVLDALWEDRDVRFDLSAQQMKTRPGEVLIDCLDSIEDTKGNNGDRGRLLVTNLRILWHSLALSRVNVSVGYNCILNITTRTANSKLRGQTEALYILTKCNSTRFEEIFTNLVPGSPRLFTSVMAVHRAYETSKMYRDFKLRSALIQNKQLRLLPQEHVYDKINGVWNLSSDQGNLGTFFITNVRIVWHANMNDSFNVSIPYLQIRSIKIRDSKFGLALVIESSQQSGGYVLGFKIDPVEKLQESVKEINSLHKVYSASPIFGVDYEMEEKPQPLEALTVEQIQDDVEIDSDGHTDAFVAYFADGNKQQDREPVFSEELGLAIEKLKDGFTLQGLWEVMS [F108E]: “disrupting interaction strength”; MSVLDALWEDRDVRFDLSAQQMKTRPGEVLIDCLDSIEDTKGNNGDRGRLLVTNLRILWHSLALSRVNVSVGYNCILNITTRTANSKLRGQTEALYILTKCNSTRFEFIETNLVPGSPRLFTSVMAVHRAYETSKMYRDFKLRSALIQNKQLRLLPQEHVYDKINGVWNLSSDQGNLGTFFITNVRIVWHANMNDSFNVSIPYLQIRSIKIRDSKFGLALVIESSQQSGGYVLGFKIDPVEKLQESVKEINSLHKVYSASPIFGVDYEMEEKPQPLEALTVEQIQDDVEIDSDGHTDAFVAYFADGNKQQDREPVFSEELGLAIEKLKDGFTLQGLWEVMS [F110E]: “with no effect”.
The entry for MSVLDALWEDRDVRFDLSAQQMKTRPGEVLIDCLDSIEDTKGNNGDRGRLLVTNLRILWHSLALSRVNVSVGYNCILNITTRTANSKLRGQTEALYILTKCNSTRFEFIATNLVPGSPRLFTSVMAVHRAYETSKMYRDFKLRSALIQNKQLRLLPQEHVYDKINGVWNLSSDQGNLGTFFITNVRIVWHANMNDSFNVSIPYLQIRSIKIRDSKFGLALVIESSQQSGGYVLGFKIDPVEKLQESVKEINSLHKVYSASPIFGVDYEMEEKPQPLEALTVEQIQDDVEIDSDGHTDAFVAYFADGNKQQDREPVFSEELGLAIEKLKDGFTLQGLWEVMS [F110A] is “with no effect”; for MSVLDALWEDRDVRFDLSAQQMKTRPGEVLIDCLDSIEDTKGNNGDRGRLLVTNLRILWHSLALSRVNVSVGYNCILNITTRTANSKLRGQTEALYILTKCNSTRFEFKFTNLVPGSPRLFTSVMAVHRAYETSKMYRDFKLRSALIQNKQLRLLPQEHVYDKINGVWNLSSDQGNLGTFFITNVRIVWHANMNDSFNVSIPYLQIRSIKIRDSKFGLALVIESSQQSGGYVLGFKIDPVEKLQESVKEINSLHKVYSASPIFGVDYEMEEKPQPLEALTVEQIQDDVEIDSDGHTDAFVAYFADGNKQQDREPVFSEELGLAIEKLKDGFTLQGLWEVMS [I109K] it is “with no effect”.
Regarding MSVLDALWEDRDVRFDLSAQQMKTRPGEVLIDCLDSIEDTKGNNGDRGRLLVTNLRILWHSLALSRVNVSVGYNCILNITTRTANSKLRGQTEALYILTKCNSTRFEFAFTNLVPGSPRLFTSVMAVHRAYETSKMYRDFKLRSALIQNKQLRLLPQEHVYDKINGVWNLSSDQGNLGTFFITNVRIVWHANMNDSFNVSIPYLQIRSIKIRDSKFGLALVIESSQQSGGYVLGFKIDPVEKLQESVKEINSLHKVYSASPIFGVDYEMEEKPQPLEALTVEQIQDDVEIDSDGHTDAFVAYFADGNKQQDREPVFSEELGLAIEKLKDGFTLQGLWEVMS [I109A], the “effect of a mutation on the interaction” value is reported as “with no effect”.
The entry for MSVLDALWEDRDVRFDLSAQQMKTRPGEVLIDCLDSIEDTKGNNGDRGRLLVTNLRILWHSLALSRVNVSVGYNCILNITTRTANSKLRGQTEALYILTKCNSTRFEFEFTNLVPGSPRLFTSVMAVHRAYETSKMYRDFKLRSALIQNKQLRLLPQEHVYDKINGVWNLSSDQGNLGTFFITNVRIVWHANMNDSFNVSIPYLQIRSIKIRDSKFGLALVIESSQQSGGYVLGFKIDPVEKLQESVKEINSLHKVYSASPIFGVDYEMEEKPQPLEALTVEQIQDDVEIDSDGHTDAFVAYFADGNKQQDREPVFSEELGLAIEKLKDGFTLQGLWEVMS [I109E] is “with no effect”.
